Test results published in patent US20160257751A1 (SORRENTO THERAPEUTICS, published 2016).
Positions count from the first letter of the chain named.

B1: C47A8 (antibody, V domains shown)
VH: QVQLVQSGAEVKKPGASVKVSCKASGYTFTSYYMHWVRQAPGQGLEWMGIINPSGGSTSYAQKFQGRVTMTRDTSTSTVYMELSSLRSEDTAVYYCARSTLWFSEFDYWGQGTLVTVSS
VL: QSVLTQPSSVSASPGQSITISCSGTSSDVGGHNYVSWYQQHPGKAPKLMIYDVTKRPSGVPDRFSGSKSGNTASLTVSGLQAEDEADYYCCSYAGSRVYVFGTGTKLTVL
notes: also called CD47A8
B2: C47A8-CS (antibody, V domains shown)
VH: B1 VH
VL: B1 VL with C91S
B3: C47B10 (antibody, V domains shown)
VH: B1 VH
VL: QSVLTQPASVSGSPGQSISISCTGTSSDVGGHNYVSWYQQHPGKAPKLMIYDVRNRPSGVSNRFSGSKSGSTASLTISGLQTEDEADYYCNSYTGSRTYVFGSGTKLTVL
notes: lambda light chain (captured with anti-human lambda); also called CD47B10
B4: C47A8-CQ (antibody, V domains shown)
VH: B1 VH
VL: B1 VL with C91Q

The binders below were run against T1, human CD47 (human, UniProt Q08722 19-139, limits assumed, biotinylated in the ELISAs (site not stated)) (assay: SPR (BIACORE)).
T1 construct: also called biotinylated CD47; CD47 receptor
T1 sequence (Q08722 19-139 limits assumed): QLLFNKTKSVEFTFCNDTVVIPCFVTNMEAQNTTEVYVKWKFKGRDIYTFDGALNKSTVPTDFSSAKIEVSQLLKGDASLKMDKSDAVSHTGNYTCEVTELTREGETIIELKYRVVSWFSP

| Binder | Kd [nM] | koff [s⁻¹] | kon [M⁻¹ s⁻¹] |
| --- | --- | --- | --- |
| B1 | 82.3 | 0.047 | 576000 |
| B2 | 156 | 0.034 | 215000 |
| B3 | 12.1 | 0.00129 | 106000 |
| B4 | 156 | 0.02 | 129000 |
